Assay results reported in the Human Domainome abundance scans (Beltran et al. 2025).
± gives the uncertainty stated by the source.

B1: Ankyrin-1, residues 1405 to 1484; numbered along this chain, P16157 (parent)
chain: MKMAVISEHLGLSWAELARELQFSVEDINRIRVENPNSLLEQSVALLNLWVIREGQNANMENLYTALQSIDRGEIVNMLE

Variants of: B1
Assay: abundance fitness (aPCA) (normalised: wild type 0, dead -1); higher = more abundant; growth selection in yeast, the domain comes from the species named
Settings: Homo sapiens
For MKMAVISEHLGLSWAELARELQFSVEDINRIRVENPNSLLEQSVALANLWVIREGQNANMENLYTALQSIDRGEIVNMLE [L47A], the abundance fitness was -0.905 ± 0.15.
MKMAVISEHLGLSWAELARELQFSVEDINRIRVENPNSLLEQSVALHNLWVIREGQNANMENLYTALQSIDRGEIVNMLE [L47H] gave an abundance fitness of -0.503 ± 0.33.
MKMAVISEHLGLSWAELARELQFSVEDINRIRVENPNSLLEQSVALMNLWVIREGQNANMENLYTALQSIDRGEIVNMLE [L47M] gave an abundance fitness of 0.061 ± 0.11.
In the case of MKMAVISEHLGLSWAELARELQFSVEDINRIRVENPNSLLEQSVALCNLWVIREGQNANMENLYTALQSIDRGEIVNMLE [L47C], the abundance fitness is reported as -0.061 ± 0.083.
With MKMAVISEHLGLSWAELARELQFSVEDINRIRVENPNSLLEQSVALVNLWVIREGQNANMENLYTALQSIDRGEIVNMLE [L47V] the abundance fitness was -0.308 ± 0.066.
In the case of MKMAVISEHLGLSWAELARELQFSVEDINRIRVENPNSLLEQSVALGNLWVIREGQNANMENLYTALQSIDRGEIVNMLE [L47G], the abundance fitness is reported as -0.521 ± 0.066.
For MKMAVISEHLGLSWAELARELQFSVEDINRIRVENPNSLLEQSVALYNLWVIREGQNANMENLYTALQSIDRGEIVNMLE [L47Y], the abundance fitness was -0.997 ± 0.34.
For MKMAVISEHLGLSWAELARELQFSVEDINRIRVENPNSLLEQSVALDNLWVIREGQNANMENLYTALQSIDRGEIVNMLE [L47D], the abundance fitness was -0.743 ± 0.23.
MKMAVISEHLGLSWAELARELQFSVEDINRIRVENPNSLLEQSVALNNLWVIREGQNANMENLYTALQSIDRGEIVNMLE [L47N] showed an abundance fitness of -0.914 ± 0.35.
For MKMAVISEHLGLSWAELARELQFSVEDINRIRVENPNSLLEQSVALENLWVIREGQNANMENLYTALQSIDRGEIVNMLE [L47E], the abundance fitness was -0.874 ± 0.22.
MKMAVISEHLGLSWAELARELQFSVEDINRIRVENPNSLLEQSVALWNLWVIREGQNANMENLYTALQSIDRGEIVNMLE [L47W] gave an abundance fitness of -0.673 ± 0.12.
MKMAVISEHLGLSWAELARELQFSVEDINRIRVENPNSLLEQSVALTNLWVIREGQNANMENLYTALQSIDRGEIVNMLE [L47T] showed an abundance fitness of -0.628 ± 0.15.
For MKMAVISEHLGLSWAELARELQFSVEDINRIRVENPNSLLEQSVALINLWVIREGQNANMENLYTALQSIDRGEIVNMLE [L47I], the abundance fitness was -0.256 ± 0.2.
With MKMAVISEHLGLSWAELARELQFSVEDINRIRVENPNSLLEQSVALPNLWVIREGQNANMENLYTALQSIDRGEIVNMLE [L47P] the abundance fitness was -0.654 ± 0.16.
MKMAVISEHLGLSWAELARELQFSVEDINRIRVENPNSLLEQSVALLNMWVIREGQNANMENLYTALQSIDRGEIVNMLE [L49M] showed an abundance fitness of 0.061 ± 0.047.
For MKMAVISEHLGLSWAELARELQFSVEDINRIRVENPNSLLEQSVALLNCWVIREGQNANMENLYTALQSIDRGEIVNMLE [L49C], the abundance fitness was -0.097 ± 0.09.
In the case of MKMAVISEHLGLSWAELARELQFSVEDINRIRVENPNSLLEQSVALLNDWVIREGQNANMENLYTALQSIDRGEIVNMLE [L49D], the abundance fitness is reported as -0.196 ± 0.087.
Variant MKMAVISEHLGLSWAELARELQFSVEDINRIRVENPNSLLEQSVALLNAWVIREGQNANMENLYTALQSIDRGEIVNMLE [L49A] has an abundance fitness of -0.138 ± 0.057.
MKMAVISEHLGLSWAELARELQFSVEDINRIRVENPNSLLEQSVALLNRWVIREGQNANMENLYTALQSIDRGEIVNMLE [L49R] showed an abundance fitness of -0.088 ± 0.049.
With MKMAVISEHLGLSWAELARELQFSVEDINRIRVENPNSLLEQSVALLNEWVIREGQNANMENLYTALQSIDRGEIVNMLE [L49E] the abundance fitness was -0.055 ± 0.078.
In the case of MKMAVISEHLGLSWAELARELQFSVEDINRIRVENPNSLLEQSVALLNVWVIREGQNANMENLYTALQSIDRGEIVNMLE [L49V], the abundance fitness is reported as -0.314 ± 0.065.
With MKMAVISEHLGLSWAELARELQFSVEDINRIRVENPNSLLEQSVALLNWWVIREGQNANMENLYTALQSIDRGEIVNMLE [L49W] the abundance fitness was -0.359 ± 0.074.
MKMAVISEHLGLSWAELARELQFSVEDINRIRVENPNSLLEQSVALLNHWVIREGQNANMENLYTALQSIDRGEIVNMLE [L49H] gave an abundance fitness of -0.239 ± 0.12.
Work on MKMAVISEHLGLSWAELARELQFSVEDINRIRVENPNSLLEQSVALLNPWVIREGQNANMENLYTALQSIDRGEIVNMLE [L49P] yielded an abundance fitness of -0.81 ± 0.19.
Work on MKMAVISEHLGLSWAELARELQFSVEDINRIRVENPNSLLEQSVALLNKWVIREGQNANMENLYTALQSIDRGEIVNMLE [L49K] yielded an abundance fitness of 0.047 ± 0.1.
MKMAVISEHLGLSWAELARELQFSVEDINRIRVENPNSLLEQSVALLNIWVIREGQNANMENLYTALQSIDRGEIVNMLE [L49I] gave an abundance fitness of -0.058 ± 0.1.
MKMAVISEHLGLSWAELARELQFSVEDINRIRVENPNSLLEQSVALLNGWVIREGQNANMENLYTALQSIDRGEIVNMLE [L49G] showed an abundance fitness of -0.11 ± 0.046.
Variant MKMAVISEHLGLSWAELARELQFSVEDINRIRVENPNSLLEQSVALLNTWVIREGQNANMENLYTALQSIDRGEIVNMLE [L49T] has an abundance fitness of -0.216 ± 0.092.
Variant MKMAVISEHLGLSWAELARELQFSVEDINRIRVENPNSLLEQSVALLNNWVIREGQNANMENLYTALQSIDRGEIVNMLE [L49N] has an abundance fitness of -0.256 ± 0.12.
MKMAVISEHLGLSWAELARELQFSVEDINRIRVENPNSLLEQSVALLNFWVIREGQNANMENLYTALQSIDRGEIVNMLE [L49F] gave an abundance fitness of -0.19 ± 0.091.
For MKMAVISEHLGLSWAELARELQFSVEDINRIRVENPNSLLEQSVALLNQWVIREGQNANMENLYTALQSIDRGEIVNMLE [L49Q], the abundance fitness was 0.014 ± 0.075.
Work on MKMAVISEHLGLSWAELARELQFSVEDINRIRVENPNSLLEQSVANLNLWVIREGQNANMENLYTALQSIDRGEIVNMLE [L46N] yielded an abundance fitness of -0.878 ± 0.36.
Variant MKMAVISEHLGLSWAELARELQFSVEDINRIRVENPNSLLEQSVACLNLWVIREGQNANMENLYTALQSIDRGEIVNMLE [L46C] has an abundance fitness of -0.138 ± 0.2.
MKMAVISEHLGLSWAELARELQFSVEDINRIRVENPNSLLEQSVADLNLWVIREGQNANMENLYTALQSIDRGEIVNMLE [L46D] showed an abundance fitness of -1.1 ± 0.41.
